Test results as given in PMC8939767 (Science Translational Medicine, 2022).

Target: SARS-CoV-2 spike S2P (soluble S trimer with two proline mutations) (SARS-CoV-2, Wuhan reference, UniProt P0DTC2, stabilised)
Experiment: BLI; […] (AHC) sensors, […], association 120 s, […]
Conditions: both partners purified

B1: CC40.8 broadly neutralizing antibody (IgG) (antibody, V domains shown)
VH: EVQLLESGGGLVQPGGSLRLSCAASGFTFSSYVMTWARQAPGKGLEWVSAISGTGYTYYADSVKGRFTVSRDNSKNTLFLQMSSLRAEDTAVYYCAITMAPVVWGQGTTVTVSS
VL: SYELTQPPSVSVSPGQTARITCSGDALPKRYAYWYQQKSGQAPILVIYEDKKRPSGIPERLSGSKSGTVATLTISGAQVEDEADYYCYSTDSSGNHAVFGGGTQLTVL
notes: also called CC40.8 bnAb; CC40.8 mAb
  binding result: binds
